These results are taken from the DeepSol protein solubility set.

A short description of this data set: soluble on expression in E. coli; label from the status in PepcDB or PDB records.
Take “MGILSDKDIAYLKDLFGKELKRKVKIVFFKTEDKTRCQYCEITEQVLEELVSVDPKLELEIHDFDSDKEAVEKYQVEMVPATILLPEDGKDYGIRFYGVPSGHEFGTLIQDIITVSEGKPQLSEESIQKLQSLEEPIRISVFVTPTCPYCPRAVLMAHNMAMASDKIIGEMIEANEYWELSEKFGVSSVPHIVVNRDPSKFFVGAYPEKEFINEVLRLAKG”: the “soluble on expression in E. coli” value was “soluble”.
As for “IGFRFDDSKGTVFIDGDVEEITGYSTEDFLSHRVKWADLVLPEDQYLIFERINRSVSNPDHSIETEYRIKRKNGEIRWIREFLQKFPEESKNSRQFQGFIHDITGRKKA”, the “soluble on expression in E. coli” value is “not soluble”.
Consider “MVELKVPMFPESVADGTLAQWNKNEGDFVNEGDILAEIETDKVVLEVPATSSGVLKGIKKHAGDTVLSEESLAIIDTAVSTSEPNQQTTNQGNASEATATGQEIDIKAPVFPESVADGTISEWHKKEGEAVSEGDILAEIETDKVVLEVPATSNGVLTKILKTAGETVLSAELIAKITAGGATATTKSEASVGVSQANNDPHLVPSARKAFNASGLDTAANIEGTGKKGRITSEDVKKAVASVNKPQQQTVVINQGARYEKRVKMTRLRQTIANRLVEVQHTNAILTTFNEVDMSAVMELRNKYKDMFVKEHDTKLGFMSFFIKAATEALKKFPDVNASIDGDEIVYHNYFDIGIAVGTDRGLVVPVLRDTDTKSLAELEADVLDKAIKGRDGKLSLEDMQGGTFTITNGGTYGSMLSTPIINSPQSAILGMHNIVERPVVVKGEIKIRPIMYLALSYDHRIIDGGTSVRFLKMIKELIEDPNRILLQV”, for which the “soluble on expression in E. coli” value is recorded as “not soluble”.
The same measure for “EQPFYRTKVKLKKEIVTLGVPGVDPNKQVGQYVEAKDWNALISDPEVLLIDTRNDYEVAIGTFEGAVDPKTRSFREFPEYIKAHYDPARHKKVAMFCTGGIRCEKASSYMLGAGFEEVFHLKGGILKYLEEVPQEQSLWRGDCFVFDNRVTVRHDLSEGEYDQCHA”: “not soluble”; for “MPTLGFRFRAYTDEQTLRALKAQLKLACKIYNTLRWADIYFYQRDGKGLTQTELRQLALDLRKQDDEYKQLYSQVVQQIADRYYEARQRFFEGLARFPKEKKPHKYYSLVYPQYGWKILHVREIRKGSKKKLITLKLSNLGTFKVIVHRDFPLDKVKRVVVKLTRSERIYITFVVDHEFPKLPNTGKVVAIDVGVEKLLVTSDGEYFPNLRPYEKALWKVKHLHRELSRKKFLSNNWFKAKVKLARAYEYLKNLRTDLYMKLGKWFAEHYDVVVMEGIHAKQLVGKSLRSLRRRLSDVGFGELRGVLKYQLEKYGKKLILVNPAYTSKTCARCGYVKNDLSLSDRVFVCPNCGWIADRDYNASLNILRGSGSERPLVPVELRPLPVLWQGGAMKQEAPSFMRGLEHHHHHH”: “not soluble”; for “GGSHMELPGSSMKPSGEDQAALAAGPWEECFQAAVQLALRAGQIIRKALTEEKRVSTKTSAADLVTETDHLVEDLIISELRERFPSHRFIAEEAAASGAKCVLTHSPTWIIDPIDGTCNFVHRFPTVAVSIGFAVRQELEFGVIYHCTEERLYTGRRGRGAFCNGQRLRVSGETDLSKALVLTEIGPKRDPATLKLFLSNMERLLHAKAHGVRVIGSSTLALCHLASGAADAYYQFGLHCWDLAAATVIIREAGGIVIDTSGGPLDLMACRVVAASTREMAMLIAQALQTINYGRDDEK”: “soluble”.
Regarding “MSAEVETSEGVDESEKKNSGALEKENQMRMADLSELLKEGTKEAHDRAENTQFVKDFLKGNIKKELFKLATTALYFTYSALEEEMERNKDHPAFAPLYFPMELHRKEALTKDMEYFFGENWEEQVQCPKAAQKYVERIHYIGQNEPELLVAHAYTRYMGDLSGGQVLKKVAQRALKLPSTGEGTQFYLFENVDNAQQFKQLYRARMNALDLNMKTKERIVEEANKAFEYNMQIFNELDQAGSTLARETLEDGFPVHDGKGDMRKCPFYAAEQDKGALEGSSCPFRTAM”, the “soluble on expression in E. coli” value was “soluble”.
The entry for “MRRVNILCSFALLFASHTSLAVTYPLPPEGSRLVGQSFTVTVPDHNTQPLETFAAQYGQGLSNMLEANPGADVFLPKSGSQLTIPQQLILPDTVRKGIVVNVAEMRLYYYPPDSNTVEVFPIGIGQAGRETPRNWVTTVERKQEAPTWTPTPNTRREYAKRGESLPAFVPAGPDNPMGLYAIYIGRLYAIHGTNANFGIGLRVSQGCIRLRNDDIKYLFDNVPVGTRVQIIDQPVKYTTEPDGSNWLEVHEPLSRNRAEYESDRKVPLPVTPSLRAFINGQEVDVNRANAALQRRSGMPVQISSGSRQMF” is “not soluble”.
